Assay results reported in patent US20240209086A1 (PETMEDIX, published 2024).

Columns and labels:
[1] = molecular target: canine CD3 on canine T cells (canine PBMC) (canine, UniProt P27597 22-202); test: cell-based or functional assay
[2] = molecular target: T1, canine CD3εδ-Fc (heterodimer of canine CD3ε-hIgG4PE-knob and canine CD3δ-hIgG4PE-hole) (canine); test: SPR (Biacore 8K), CD3εδ-Fc amine-coupled to CM5 chip, multi-cycle kinetics, antibody 600-7.4 nM
T1 construct: also called CD3εδ-Fc fusion protein; copies: 1 + 1
T1 sequence (chain, as listed by the source mutant limits assumed): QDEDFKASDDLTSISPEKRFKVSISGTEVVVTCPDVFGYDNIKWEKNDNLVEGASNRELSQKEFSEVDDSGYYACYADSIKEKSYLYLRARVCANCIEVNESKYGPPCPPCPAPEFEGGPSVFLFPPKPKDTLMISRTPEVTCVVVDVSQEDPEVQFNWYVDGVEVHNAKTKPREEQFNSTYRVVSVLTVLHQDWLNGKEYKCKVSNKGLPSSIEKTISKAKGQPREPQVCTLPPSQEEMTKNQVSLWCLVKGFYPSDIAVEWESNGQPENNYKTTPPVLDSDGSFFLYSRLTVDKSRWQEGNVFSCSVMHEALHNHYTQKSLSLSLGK
Method: Binding affinity of shortlisted candidates, described in Example 3, were assessed using Biacore 8K (Cytiva). Briefly, a CM5 Sensor Chip (Cytiva) was docked onto a Biacore 8K, equilibrated for 30′ at RT and then Running Buffer (10 mM HEPES pH6 150 mM NaCl 3 mM EDTA and 0.005% Tween20) was applied to the SPR chip surface. Canine CD3εδ-Fc was diluted into 10 mM acetate buffer pH4.5 and immobilised using standard amine coupling reaction. Antibodies dilutions were prepared by diluting the shortlisted candidates from 600 nM to 7.4 nM (5 concentrations with 1:3 dilutions) in running buffer and kinetics was assessed using multi-cycle kinetics method (120 sec association-300 sec dissociation). Kinetics and/or Affinity quantification was performed using Biacore Insight following standard analyses methods.

canine CD3 on canine T cells (canine PBMC), sequence (P27597 22-202 limits assumed, chain 1 of 3): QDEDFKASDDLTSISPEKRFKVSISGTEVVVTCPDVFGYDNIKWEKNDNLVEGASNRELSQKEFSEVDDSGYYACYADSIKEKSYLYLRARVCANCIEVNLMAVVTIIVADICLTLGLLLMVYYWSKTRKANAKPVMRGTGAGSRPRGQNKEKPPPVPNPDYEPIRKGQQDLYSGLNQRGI
canine CD3 on canine T cells (canine PBMC), sequence (chain, as listed by the source limits assumed, chain 2 of 3): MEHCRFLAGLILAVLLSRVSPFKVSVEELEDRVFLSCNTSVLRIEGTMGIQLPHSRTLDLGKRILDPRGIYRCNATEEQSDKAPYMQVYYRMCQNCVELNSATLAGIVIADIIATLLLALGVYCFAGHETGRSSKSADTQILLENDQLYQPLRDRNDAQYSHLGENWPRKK
canine CD3 on canine T cells (canine PBMC), sequence (chain, as listed by the source limits assumed, chain 3 of 3): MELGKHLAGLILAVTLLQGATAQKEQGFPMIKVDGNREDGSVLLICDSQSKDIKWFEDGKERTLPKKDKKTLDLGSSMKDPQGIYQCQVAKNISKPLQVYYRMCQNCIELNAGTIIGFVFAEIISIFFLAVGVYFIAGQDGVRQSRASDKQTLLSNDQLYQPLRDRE

Binder	Kd [2]	EC50 (M) of killing potency, bispecific killing of hCD20+GFP MDCK II cells by canine PBMC [1]
PMX192 in bispecific format (canine CD3 arm PMX192 x Rituximab arm, human IgG4PE knob-in-hole) (bispecific antibody) heavy 1: EVQLVESGGDLVKPAGSLRLSCVASGFTFSDYSMSWVRQAPEKGLQLVAGINGDGSTTYYTDAVKGRFTISRDNAKNTVYLQMNSLRAEDTAMYYCAKGAGTGDFWGQGTLVTVSSASTKGPSVFPLAPCSRSTSESTAALGCLVKDYFPEPVTVSWNSGALTSGVHTFPAVLQSSGLYSLSSVVTVPSSSLGTKTYTCNVDHKPSNTKVDKRVESKYGPPCPPCPAPEFEGGPSVFLFPPKPKDTLMISRTPEVTCVVVDVSQEDPEVQFNWYVDGVEVHNAKTKPREEQFNSTYRVVSVLTVLHQDWLNGKEYKCKVSNKGLPSSIEKTISKAKGQPREPQVYTLPPSQCEMTKNQVSLSCAVKGFYPSDIAVEWESNGQPENNYKTTPPVLDSDGSFFLVSRLTVDKSRWQEGNVFSCSVMHEALHNRFTQKSLSLSLGK light 1: SYELTQPPSVNVTLRETAHITCGGASIGRKYVQWIQQIPGQAPVVIIYKDSNRPTGIPERFSGANSGNTATLTISGALAEDEADYYCQVGDSGAWVFGEGTQLTVLRTVAAPSVFIFPPSDEQLKSGTASVVCLLNNFYPREAKVQWKVDNALQSGNSQESVTEQDSKDSTYSLSSTLTLSKADYEKHKVYACEVTHQGLSSPVTKSFNRGEC heavy 2: not shown light 2: QIVLSQSPAILSASPGEKVTMTCRASSSVSYIHWFQQKPGSSPKPWIYATSNLASGVPVRFSGSGSGTSYSLTISRVEAEDAATYYCQQWTSNPPTFGGGTKLEIKRTVAAPSVFIFPPSDEQLKSGTASVVCLLNNFYPREAKVQWKVDNALQSGNSQESVTEQDSKDSTYSLSSTLTLSKADYEKHKVYACEVTHQGLSSPVTKSFNRGEC	74.4 nM	3.21e-08 M
PMX185 in bispecific format (canine CD3 arm PMX185 x Rituximab arm, human IgG4PE knob-in-hole) (bispecific antibody) heavy 1: EVQLVESGGDLVKPGGSLRLSCVASGFTFSSYHMSWVRQAPGKGLQWVASINSGGSRTSYVDAVKGRFTISRDNAKKTLYLQMNSLRAEDTAVYYCASGRTGPKLGLGDYGMDSWGHGTSLFVSSASTKGPSVFPLAPCSRSTSESTAALGCLVKDYFPEPVTVSWNSGALTSGVHTFPAVLQSSGLYSLSSVVTVPSSSLGTKTYTCNVDHKPSNTKVDKRVESKYGPPCPPCPAPEFEGGPSVFLFPPKPKDTLMISRTPEVTCVVVDVSQEDPEVQFNWYVDGVEVHNAKTKPREEQFNSTYRVVSVLTVLHQDWLNGKEYKCKVSNKGLPSSIEKTISKAKGQPREPQVYTLPPSQCEMTKNQVSLSCAVKGFYPSDIAVEWESNGQPENNYKTTPPVLDSDGSFFLVSRLTVDKSRWQEGNVFSCSVMHEALHNRFTQKSLSLSLGK light 1: SYVLTQLPSKNVTLKQPAHITCGGDNIGSKSVHWYQQKLGQAPVMIIYYDSSRPTGIPERFSGANSGNTATLTISGALAEDEADYYCQVWDSSAKAWVFGEGTQLTVLRTVAAPSVFIFPPSDEQLKSGTASVVCLLNNFYPREAKVQWKVDNALQSGNSQESVTEQDSKDSTYSLSSTLTLSKADYEKHKVYACEVTHQGLSSPVTKSFNRGEC heavy 2: not shown light 2: QIVLSQSPAILSASPGEKVTMTCRASSSVSYIHWFQQKPGSSPKPWIYATSNLASGVPVRFSGSGSGTSYSLTISRVEAEDAATYYCQQWTSNPPTFGGGTKLEIKRTVAAPSVFIFPPSDEQLKSGTASVVCLLNNFYPREAKVQWKVDNALQSGNSQESVTEQDSKDSTYSLSSTLTLSKADYEKHKVYACEVTHQGLSSPVTKSFNRGEC	72.1 nM	4.79e-09 M

The next lines start with results.

Kd [2]	Binder	EC50 (M) of killing potency, bispecific killing of hCD20+GFP MDCK II cells by canine PBMC [1]
62.1 nM	PMX191 in bispecific format (canine CD3 arm PMX191 x Rituximab arm, human IgG4PE knob-in-hole) (bispecific antibody) heavy 1: EVQLVESGGDLVKPAGSLRLSCVASGFTFSDYSMSWVRQGPEKGLQLVAGMNSDGSTTYYTDAVRGRFTISRDNAKNTMYLQMNSLRDEDTAIYYCAKGAAAPDYWGQGTLVTVSSASTKGPSVFPLAPCSRSTSESTAALGCLVKDYFPEPVTVSWNSGALTSGVHTFPAVLQSSGLYSLSSVVTVPSSSLGTKTYTCNVDHKPSNTKVDKRVESKYGPPCPPCPAPEFEGGPSVFLFPPKPKDTLMISRTPEVTCVVVDVSQEDPEVQFNWYVDGVEVHNAKTKPREEQFNSTYRVVSVLTVLHQDWLNGKEYKCKVSNKGLPSSIEKTISKAKGQPREPQVYTLPPSQCEMTKNQVSLSCAVKGFYPSDIAVEWESNGQPENNYKTTPPVLDSDGSFFLVSRLTVDKSRWQEGNVFSCSVMHEALHNRFTQKSLSLSLGK light 1: SYELTQPPSVNVTLRETAHITCGGDRIGSKYVQWIQQIPGQAPVVIIYKDNNRPTGIPERFSGANSGNTATLTISGALAEDEADYYCQVGDNYTWVFGEGTQLTVLRTVAAPSVFIFPPSDEQLKSGTASVVCLLNNFYPREAKVQWKVDNALQSGNSQESVTEQDSKDSTYSLSSTLTLSKADYEKHKVYACEVTHQGLSSPVTKSFNRGEC heavy 2: not shown light 2: QIVLSQSPAILSASPGEKVTMTCRASSSVSYIHWFQQKPGSSPKPWIYATSNLASGVPVRFSGSGSGTSYSLTISRVEAEDAATYYCQQWTSNPPTFGGGTKLEIKRTVAAPSVFIFPPSDEQLKSGTASVVCLLNNFYPREAKVQWKVDNALQSGNSQESVTEQDSKDSTYSLSSTLTLSKADYEKHKVYACEVTHQGLSSPVTKSFNRGEC	9.44e-09 M
99.8 nM	PMX184 in bispecific format (canine CD3 arm PMX184 x Rituximab arm, human IgG4PE knob-in-hole) (bispecific antibody) heavy 1: ELTLQESGPGLVKPSQTLSLTCGVSGGSVTRSHYWNWVRQRPGRGLEWMGYWTGSTNYNPAFQGRISITADTAKNQFSLQLRSMTTEDTAVYFCARETTIPTFFFDYWGQGTLVTVSSASTKGPSVFPLAPCSRSTSESTAALGCLVKDYFPEPVTVSWNSGALTSGVHTFPAVLQSSGLYSLSSVVTVPSSSLGTKTYTCNVDHKPSNTKVDKRVESKYGPPCPPCPAPEFEGGPSVFLFPPKPKDTLMISRTPEVTCVVVDVSQEDPEVQFNWYVDGVEVHNAKTKPREEQFNSTYRVVSVLTVLHQDWLNGKEYKCKVSNKGLPSSIEKTISKAKGQPREPQVYTLPPSQCEMTKNQVSLSCAVKGFYPSDIAVEWESNGQPENNYKTTPPVLDSDGSFFLVSRLTVDKSRWQEGNVFSCSVMHEALHNRFTQKSLSLSLGK light 1: SYVLTQLPSKNVTLKQPAHITCGGDNIGSKSVHWYQQKLGQAPVLIIYYDSSRPTGIPERFSGANSGNTATLTISGALAEDEADYYCQVWDSGAKAWVFGEGTQLTVLRTVAAPSVFIFPPSDEQLKSGTASVVCLLNNFYPREAKVQWKVDNALQSGNSQESVTEQDSKDSTYSLSSTLTLSKADYEKHKVYACEVTHQGLSSPVTKSFNRGEC heavy 2: not shown light 2: QIVLSQSPAILSASPGEKVTMTCRASSSVSYIHWFQQKPGSSPKPWIYATSNLASGVPVRFSGSGSGTSYSLTISRVEAEDAATYYCQQWTSNPPTFGGGTKLEIKRTVAAPSVFIFPPSDEQLKSGTASVVCLLNNFYPREAKVQWKVDNALQSGNSQESVTEQDSKDSTYSLSSTLTLSKADYEKHKVYACEVTHQGLSSPVTKSFNRGEC	2.55e-08 M
